{"source": "paper PMC8640019", "binders": {"B1": {"name": "GHR pY595 peptide (peptide)", "chain": "PVPDYTSIHIV", "modifications": "here or on the partner: phosphotyrosine at 595"}}, "experiment_in_all_cases": "SPR", "details_in_all_cases": "remark: other sources report otherwise", "key": {"[1]": {"target": "CIS-Elo B/C + F3 (human), Q9NSE2"}, "SPR [2]": {"substrate": "CIS R78G, F116L-EloB/C + F3 (human), Q9NSE2"}, "SPR [3]": {"substrate": "CIS R78G, F116L-EloB/C (human), Q9NSE2"}, "SPR [4]": {"substrate": "CIS R78G-EloB/C (human), Q9NSE2"}, "SPR [5]": {"substrate": "CIS F74, F116L-EloB/C + F3 (human), Q9NSE2"}, "SPR [6]": {"substrate": "CIS F74L-EloB/C + F3 (human), Q9NSE2"}, "SPR [7]": {"substrate": "CIS F74, F116L-EloB/C (human), Q9NSE2"}, "[8]": {"target": "SOCS2 FL + F3 (human), O14508", "sequence (O14508 whole entry, chain 1 of 3)": "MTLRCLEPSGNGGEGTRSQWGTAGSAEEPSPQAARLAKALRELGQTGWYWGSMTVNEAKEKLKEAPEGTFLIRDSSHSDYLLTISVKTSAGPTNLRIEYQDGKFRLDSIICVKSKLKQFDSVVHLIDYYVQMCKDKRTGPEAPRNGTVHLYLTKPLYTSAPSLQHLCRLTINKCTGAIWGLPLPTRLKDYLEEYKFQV", "sequence (Q15370 whole entry, chain 2 of 3, further chain)": "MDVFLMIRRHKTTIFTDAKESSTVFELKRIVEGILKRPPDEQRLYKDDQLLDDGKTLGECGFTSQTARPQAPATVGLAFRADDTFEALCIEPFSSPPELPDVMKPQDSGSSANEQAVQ", "sequence (Q15369 17-112, chain 3 of 3, further chain)": "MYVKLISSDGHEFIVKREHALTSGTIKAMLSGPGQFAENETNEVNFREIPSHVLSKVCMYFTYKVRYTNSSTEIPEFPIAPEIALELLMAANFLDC"}, "SPR [9]": {"substrate": "CIS F116L-EloB/C (human), Q9NSE2"}, "SPR [10]": {"substrate": "CIS R78G-EloB/C + F3 (human), Q9NSE2"}}, "data": [{"binder": "B1", "values": [{"measurement": "IC50", "setting": "[1]", "value": 4.3, "unit": "µM"}, {"measurement": "IC50", "setting": "SPR [2]", "value": 8.8, "unit": "µM"}, {"measurement": "IC50", "setting": "SPR [3]", "value": 20, "unit": "µM"}, {"measurement": "IC50", "setting": "SPR [4]", "value": 6.7, "unit": "µM"}, {"measurement": "IC50", "setting": "SPR [5]", "value": 3.7, "unit": "µM"}, {"measurement": "IC50", "setting": "SPR [6]", "value": 4.2, "unit": "µM"}, {"measurement": "IC50", "setting": "SPR [7]", "value": 7, "unit": "µM"}, {"measurement": "IC50", "setting": "[8]", "value": 0.2, "unit": "µM"}, {"measurement": "IC50", "setting": "SPR [9]", "value": 6.6, "unit": "µM"}, {"measurement": "IC50", "setting": "SPR [10]", "value": 2, "unit": "µM"}]}]}
